From the DeepSol protein solubility set

assay: soluble on expression in E. coli; label from the status in PepcDB or PDB records

Row | Sequence | soluble on expression in E. coli
1 | MGSDKIHHHHHHMGFKEDFMGNAPGACPFLHLVERSTSDVLEQAEALPFWSQDYTQLSKGAFSGSVTSVSCDGLQIFTETMNQAVDQIASAPVDSYVMGLPTLVDGESTWGLLPITTNSLITLEKNAELYFKTSNISEITAAVIPAQRLETYAAEVEWIDLSKVMEGLKPVEMLHPDIAQQLLSALQGGIQYKADIADNIHAHQMWRNFEDDLLSTCLHTLLHVRGNIHPHFDQRLPRYLVNRVRDYTLSNSALPLTIGELCKSLRVSRRTLNHAFIRVLGITPVAYIRNLRLHRVRFEMQQSPHEVISIAHLATKWGFWHLSLFSRYYRELFGECPIDTLQRARLESKRP | not soluble
2 | MSLYTASQLLDKINSHISDIRFTRTPAGLYDPIKYVLSMGGKRIRPVLMLMAYNLYKEDVSSIYDPATAIEVYHNYTLLHDDLMDRADMRRGKTTVHKVWNDNTAILSGDAMLVLAYQYMAASSSEHLKEVMDLFSLTALEICEGQQMDMNFESREDVKEEEYLEMIRLKTAVLLAASLKIGAILGGASPEDAENLYDFGMQIGVAFQLQDDLLDVYGDPAVFGKNIGGDILCNKKTYMLIKALERADRDQLEGLNHWLSATSFCPEEKISAVTELYTQIGIKAVCENKMREYYTRAMTSLGAVSVIEDKKSELKKLMKHLMYREGHHHHHH | soluble
3 | MAHHHHHHMPSSPFPTLPTRATQHHHHCSHTRVHQICPAVPSLSALSNILTVSAMSAKTAAAPSERSFVDRFVRSHAGAATAAGILEIGFFHPFDTIAKRLMANKGSIMRGSTGET | soluble
4 | MSLSLWQQCLARLQDELPATEFSMWIRPLQAELSDNTLALYAPNRFVLDWVRDKYLNNINVLLNDFCGMDAPLLRFEVGSKPLVQTISQPAQSHHNPVSVARQQPVRMAPVRPSWDNSPVQAEHTYRSNVNPKHTFDNFVEGKSNQLARAAARQVADNPGGAYNPLFLYGGTGLGKTHLLHAVGNGIIARKPNAKVVYMHSERFVQDMVKALQNNAIEEFKRYYRSVDALLIDDIQFFANKERSQEEFFHTFNALLEGNQQIILTSDRYPKEINGVEDRLKSRFGWGLTVAIEPPELETRVAILMKKADENDIRLPGEVAFFIAKRLRSNVRELEGALNRVIANANFTGRSITIDFVREALRDLLALQEKLVTIDNIQKTVAEYYKIKIADLLSKRRSRSVARPRQMAMALAKELTNHSLPEIGDAFGGRDHTTVLHACRKIEQLREESHDIKEDFSNLIRTLSSLEHHHHHH | soluble
5 | GMNANQFLKAVSQLQGWRECAFLLALAERSFPNYALFADAVGLKTGGKMRQLLDLAWDMLQKDVADAAIPQLLSKLETLCPNVDEYDAYGVYPAFDFCQLLEQALLNRLNPNKHRATEASQLATRTVMDFVEMSEGEGMDENELVRVFEHHPLLKDDKLFQRDTVMALYYYRTPKEAFLAELRAGAANDGVSNLGISLEG | soluble
6 | MKEKILLGGYTKRVSKGVYSVLLDTKAAELSSLNEVAAVQNPTYITLDEKGHLYTCAADSNGGGIAAFDFDGETATHLGNVTTTGAPLCYVAVDEARQLVYGANYHLGEVRVYKIQANGSLRLTDTVKHTGSGPRPEQASSHVHYSDLTPDGRLVTCDLGTDEVTVYDVIGEGKLNIATIYRAEKGMGARHITFHPNGKIAYLVGELNSTIEVLSYNEEKGRFARLQTISTLPEDYHGANGVAAIRISSDGKFLYTSNRGHDSLTTYKVSPLGTKLETIGWTNTEGHIPRDFNFNKTEDYIIVAHQESDNLSLFLRDKKTGTLTLEQKDFYAPEITCVLPLLEHHHHHH | not soluble
7 | MGSDKIHHHHHHMKAIGYQTAGAITAPNALENITLAEPTATGFDLLVEIKAISVNPVDTKIRASSSAPTGEYKIIGWDAVGVVKAVGEKVSLFNVGDEVWYAGDISRSGSYAEYQLVDERIVGHKPKSLTYTQAAALPLTGITAWEILFDRLALPQDGSATDARILIIGAAGGVGSIITQLAVKLTGAEVIGTASRPESAAWVHKLGANAVINHTKPLSKELANIGITDVTHVISLTQTDQHFDEIVQVLKPQGKLALIDDPKGPLDVMKLKRKSLSLHWELMFTRSLYQTEDMIAQHHLLNRLSALIDTGELQSTFGEHYGTINAQNLIKAHAQIESGKAIGKIVLEGFNQ | not soluble
8 | MKILLRNALITNEGKTFPGSVMIDGAFISRIIEGELPADDNLSADEVIECSGLRLFPGCIDDQVHFREPGLTHKATIASESRAAVAGGVTSFMDMPNTNPPTTMWERLLEKRQIGADTAWANYGFFFGGTNDNIDEIKRVDKHLVPGLKLFLGSSTGNMLVDNKETLEKIFGECDLLIATHCEKEEIIRANKEHYKAKYGNDLDIHFHPLIRSEEACYRSSAEAVELAERMNARLHILHLSTEKELSLFRNDIPTAQKRITSEVCVHHLWFSDTDYGRLGNRIKWNPAIKKESDREALRAAVRNGRIDIIATDHAPHLLREKEGSCLQAASGGPLVQHSLLALLELCNQGIFSIEEIVSKTAHIPATLFAIEKRGYIRPGYYADLVLVDPSSPHTVSADNILSLCGWSPFEGFTFSHSVAYTFVNGCLAYAKGRLAESRPTVHPLFFNR | soluble
9 | MHHHHHHSSGVDLGTENLYFQSMMASQNSFRIEYDTFGELKVPNDKYYGAQTVRSTMNFKIGGVTERMPTPVIKAFGILKRAAAEVNQDYGLDPKIANAIMKAADEVAEGKLNDHFPLVVWQTGSGTQTNMNVNEVISNRAIEMLGGELGSKIPVHPNDHVNKSQSSNDTFPTAMHIAAAIEVHEVLLPGLQKLHDALDAKSKEFAQIIKIGRTHTQDAVPLTLGQEFSGYVQQVKYAMTRIKAAMPRIYELAAGGTAVGTGLNTRIGFAEKVAAKVAALTGLPFVTAPNKFEALAAHDALVELSGAMNTTACSLMKIANDIRFLGSGPRSGLGELILPENEPGSSIMPGKVNPTQCEAMTMVAAQVMGNHVAVTVGGSNGHFELNVFKPMMIKNVLHSARLLGDASVSFTENCVVGIQANTERINKLMNESLMLVTALNPHIGYDKAAKIAKTAHKNGSTLKETAIELGYLTAEQFDEWVKPKDMLGPK | soluble
10 | MGSSHHHHHHGGTGENLYFQGGSGNRIDISNFDFLYVIGKGTYGIVYKALDKKENNFVAIKKIINLCDENYGISKCILRELTILQKIKHKNIINLKYVFYGKDIEDKLKGENLENSCLYLAFEYCDIDLFNLIKKHNLNIKEIKYIIFELLLALSYFHSNNYIHRDIKPENIFITSEGEIKLGDLGMSVEKSDHMTPTVVTLWYRAPEILLKSTNYDQKVDIWSLGCLFMELIQGRPLFPGKNDCTQLELIYLLLGDKDKLTTVDKERKDMFPYFEINMLKDAIDDEHTLDLISKMLIYDPNYRISSKEALKHPCFQDIEQVKFSYNF | not soluble
11 | MADRRNLFFFYGDDKATLVEKMKPIYRILEENGFTILDHPKNANAIVSVGDDATFLQAVRKTGFREDCLYAGISTKDEISFYCDFHIDHVDTALQEITKNEIEVRKYPTIQVDVDGSTSFHCLNEFSLRSSIIKTFVVDVHVDDLYFETFRGDGLVVSTPTGSTAYNKSLHGAVVDPLIPCFQVSELASLNNNTYRTLGSPFILNHERTLTLKLRPDGNDYPVIGMDNEALSIKQVEKAVVRLSDKQIKTVKLKNNSFWEKVQRTFLLEHHHHHH | soluble
12 | MGHHHHHHSHMFDAAFDPVLTVNSGDSVTVECVSGGVEVMPPAESPYAIPSALQAIHDSNPPRIGPHILTGPIAIAGAEPGDILEVRIEAIEPNNDWGYCAVRPLAGTLPEDFPERYVSHIAVDAQRGVCKPEWGPELPLAPFFGTMGVAPPAKYGRLSSREPREHGGNMDNKELVAGSTLYLPVWVPGANFSVGDGHGRQGDGEVCVNALEMGLTGTFTFVLHKKANGAADIAPFAWPRAETPTHYVLMGFHEDLDLAMKQALRQTIDFITARSNLTRVQAYQFCSLAVDFRVTQTVNGEKGVHALLSKGLLF | not soluble
13 | MDTTTTSSLKSAEKKDTDATPRAHSPEIDVEVIKSDCSTPEKQNGAVGNEQQMNNSTSTRRTDSNKNLSPPPQRLRTSSSTSDGTENLISSLSSWDWVTIDGLKLPAVTRNKERYVAVHMVQLKLLSKFPSDIPRDITRKFTMGSHKMTVTEAWTFNTINAVIRKFDLGCQLFTANDELVKLNDVQMFYWNVKLFNLKRVNGQYETAISSAENNVQLLATAMQLKKQVDSDIQVIFK | not soluble
